{"source": "the MegaScale stability set (Tsuboyama et al. 2023)", "parents": {"B1": {"name": "5KPH (parent)", "chain": "EEKRQVKQVAKEKLLEQSPNSKVQVRRVQKQGNTIRVELELRTNGKKENYTVEVERQGNTWTVKRITRT"}}}
{"variants_of": "B1", "assay": "folding stability dG (cDNA display proteolysis); higher = more stable", "conditions": "PBS, room temperature", "units": {"folding stability dG": "kJ/mol"}}
{"variant": "EEKRQVKQVAKEKLLEQSPNSKVQVRRVQKKGNTIRVELELRTNGKKENYTVEVERQGNTWTVKRITRT", "folding stability dG": 16}
{"variant": "EEKRQVKQVAKEKLLEQSPNSKVQVRRVQKDGNTIRVELELRTNGKKENYTVEVERQGNTWTVKRITRT", "folding stability dG": 16.3}
{"variant": "EEKRQVKQVAKEKLLEQSPNSKVQVRRVQKMGNTIRVELELRTNGKKENYTVEVERQGNTWTVKRITRT", "folding stability dG": 18.7}
{"variant": "EEKRQVKQVAKEKLLEQSPNSKVQVRRVQKRGNTIRVELELRTNGKKENYTVEVERQGNTWTVKRITRT", "folding stability dG": 16.9}
{"variant": "EEKRQVKQVAKEKLLEQSPNSKVQVRRVQKYGNTIRVELELRTNGKKENYTVEVERQGNTWTVKRITRT", "folding stability dG": 18.2}
{"variant": "EEKRQVKQVAKEKLLEQSPNSKVQVRRVQKNGNTIRVELELRTNGKKENYTVEVERQGNTWTVKRITRT", "folding stability dG": 16.1}
{"variant": "EEKRQVKQVAKEKLLEQSPNSKVQVRRVQKCGNTIRVELELRTNGKKENYTVEVERQGNTWTVKRITRT", "folding stability dG": 16.4}
{"variant": "EEKRQVKQVAKEKLLEQSPNSKVQVRRVQKVGNTIRVELELRTNGKKENYTVEVERQGNTWTVKRITRT", "folding stability dG": 17.8}
{"variant": "EEKRQVKQVAKEKLLEQSPNSKVQVRRVQKEGNTIRVELELRTNGKKENYTVEVERQGNTWTVKRITRT", "folding stability dG": 17}
{"variant": "EEKRQVKQVAKEKLLEQSPNSKVQVRRVQKAGNTIRVELELRTNGKKENYTVEVERQGNTWTVKRITRT", "folding stability dG": 15.7}
{"variant": "EEKRQVKQVAKEKLLEQSPNSKVQVRRVQKGGNTIRVELELRTNGKKENYTVEVERQGNTWTVKRITRT", "folding stability dG": 13.1}
{"variant": "EEKRQVKQVAKEKLLEQSPNSKVQVRRVQKHGNTIRVELELRTNGKKENYTVEVERQGNTWTVKRITRT", "folding stability dG": 18}
{"variant": "EEKRQVKQVAKEKLLEQSPNSKVQVRRVQKPGNTIRVELELRTNGKKENYTVEVERQGNTWTVKRITRT", "folding stability dG": 7.83}
{"variant": "EEKRQVKQVAKEKLLEQSPNSKVQVRRVQKLGNTIRVELELRTNGKKENYTVEVERQGNTWTVKRITRT", "folding stability dG": 17.9}
{"variant": "EEKRQVKQVAKEKLLEQSPNSKVQVRRVQKTGNTIRVELELRTNGKKENYTVEVERQGNTWTVKRITRT", "folding stability dG": 17.3}
{"variant": "EEKRQVKQVAKEKLLEQSPNSKVQVRRVQKSGNTIRVELELRTNGKKENYTVEVERQGNTWTVKRITRT", "folding stability dG": 16.8}
{"variant": "EEKRQVKQVAKEKLLEQSPNSKVQVRRVQKIGNTIRVELELRTNGKKENYTVEVERQGNTWTVKRITRT", "folding stability dG": 18.5}
{"variant": "EEKRQVKQVAKEKLLEQSPNSKVQVRRVQKWGNTIRVELELRTNGKKENYTVEVERQGNTWTVKRITRT", "folding stability dG": 18.4}
{"variant": "EEKRQVKQVAKEKLLEQSPNSKVQVRRVQKFGNTIRVELELRTNGKKENYTVEVERQGNTWTVKRITRT", "folding stability dG": 17.6}
{"variant": "EEKRQVKQVAKEKLLEQSPNSKVQVRRSQKQGNTIRVELELRTNGKKENYTVEVERQGNTWTVKRITRT", "folding stability dG": 10.4}
{"variant": "EEKRQVKQVAKEKLLEQSPNSKVQVRRIQKQGNTIRVELELRTNGKKENYTVEVERQGNTWTVKRITRT", "folding stability dG": 16.7}
{"variant": "EEKRQVKQVAKEKLLEQSPNSKVQVRRDQKQGNTIRVELELRTNGKKENYTVEVERQGNTWTVKRITRT", "folding stability dG": 6.02}
{"variant": "EEKRQVKQVAKEKLLEQSPNSKVQVRRPQKQGNTIRVELELRTNGKKENYTVEVERQGNTWTVKRITRT", "folding stability dG": 5.62}
{"variant": "EEKRQVKQVAKEKLLEQSPNSKVQVRRFQKQGNTIRVELELRTNGKKENYTVEVERQGNTWTVKRITRT", "folding stability dG": 16.4}
{"variant": "EEKRQVKQVAKEKLLEQSPNSKVQVRRWQKQGNTIRVELELRTNGKKENYTVEVERQGNTWTVKRITRT", "folding stability dG": 16.1}
{"variant": "EEKRQVKQVAKEKLLEQSPNSKVQVRRNQKQGNTIRVELELRTNGKKENYTVEVERQGNTWTVKRITRT", "folding stability dG": 6.47}
{"variant": "EEKRQVKQVAKEKLLEQSPNSKVQVRRRQKQGNTIRVELELRTNGKKENYTVEVERQGNTWTVKRITRT", "folding stability dG": 6.51}
{"variant": "EEKRQVKQVAKEKLLEQSPNSKVQVRRKQKQGNTIRVELELRTNGKKENYTVEVERQGNTWTVKRITRT", "folding stability dG": 7.26}
{"variant": "EEKRQVKQVAKEKLLEQSPNSKVQVRRAQKQGNTIRVELELRTNGKKENYTVEVERQGNTWTVKRITRT", "folding stability dG": 13.2}
{"variant": "EEKRQVKQVAKEKLLEQSPNSKVQVRRYQKQGNTIRVELELRTNGKKENYTVEVERQGNTWTVKRITRT", "folding stability dG": 18.2}
{"variant": "EEKRQVKQVAKEKLLEQSPNSKVQVRRTQKQGNTIRVELELRTNGKKENYTVEVERQGNTWTVKRITRT", "folding stability dG": 13.6}
{"variant": "EEKRQVKQVAKEKLLEQSPNSKVQVRRHQKQGNTIRVELELRTNGKKENYTVEVERQGNTWTVKRITRT", "folding stability dG": 9.03}
{"variant": "EEKRQVKQVAKEKLLEQSPNSKVQVRRQQKQGNTIRVELELRTNGKKENYTVEVERQGNTWTVKRITRT", "folding stability dG": 10.6}
{"variant": "EEKRQVKQVAKEKLLEQSPNSKVQVRREQKQGNTIRVELELRTNGKKENYTVEVERQGNTWTVKRITRT", "folding stability dG": 7.3}
{"variant": "EEKRQVKQVAKEKLLEQSPNSKVQVRRCQKQGNTIRVELELRTNGKKENYTVEVERQGNTWTVKRITRT", "folding stability dG": 14.2}
{"variant": "EEKRQVKQVAKEKLLEQSPNSKVQVRRMQKQGNTIRVELELRTNGKKENYTVEVERQGNTWTVKRITRT", "folding stability dG": 17.2}
{"variant": "EEKRQVKQVAKEKLLEQSPNSKVQVRRLQKQGNTIRVELELRTNGKKENYTVEVERQGNTWTVKRITRT", "folding stability dG": 16.9}
{"variant": "EEKRQVKQVAKEKLLEQSPNSKVQVRRGQKQGNTIRVELELRTNGKKENYTVEVERQGNTWTVKRITRT", "folding stability dG": 7.84}
{"variant": "EEKRQVKQVAKEKLLEQSPNSKVQVRRVLKQGNTIRVELELRTNGKKENYTVEVERQGNTWTVKRITRT", "folding stability dG": 17.8}
